Measured values from a protein production outcome set (Wang et al. 2014).

Test: label from the status in PepcDB records
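Note: failed if final PepcDB status was selected cloned or expressed and not failed if soluble or beyond.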

Sequence	protein production
MIMFNYQQTSQSCVKCGKCIPSCTIYNIHPDEVTSPRGFIDLLGAYQRGELELDKNAKDIFEKCFLCTNCTYVCPNLLPTDQVIENVRAEIAQKFGIAWFKRAYFFLLRNRWLMDWGFALGSVFTPLLFKNLPKHQSVKPRFKLPLIGERVFMWLRFKSFMESYPEETLNSDRENPRRVAIFIGCLANYNYTKIGDSLMEILKELRIDAFIPKKQQCCGAPAYFTGDFPTVDKLIKQNVTYFESFIDEVEAIIIPEATCSAMILEDWERFMHNQPEWRERIARLLPKIFIASDWLYHKTDLLKRLEALSVKMDKSITYHDPCHARKVLGVFKEPRALLGANYKIVEMSDPNQCCGFGGVTLQTEKYQYSKKVGIAKTKMIQETGAKIVSAECSACRMQLTNALDHEKIDVEFAHPLELIAEALKARG	failed
MINEFFKETVWEEAWKEDQQTAVNKMKKAGMDKVHHFDLRAKSFNEQAFNEEGRKRTKRIMKWLEGQGVTFKDTSILDIGAASGGFTVPFAERGAEVTAVEPSLPLVELMKENITGITNGKVKIVAEPFEDIDIQAKGWGNAFDFVFVSMCPAIADWESVKRVLSCARQFCYISLSAGSREHSLLNEIWPLVSDQPLKNEHSEMAYLLHLLFLKGYTYESLVTREMKTREVSRETALNEVMDMLRMFGLPADDRNRKITAAYLERTYPNDKVEIRQGGRFGKVLIRLQNQNMYMNS	failed
MINEHYIPQAVILANGEYPAHELPLRLLAEAQFVVCCDGAANEYISRGHTPDVIIGDGDSLLPEYKKRFSSIILQISDQETNDQTKAVHYLQSKGIRKIAIVGATGKREDHTLGNISLLVEYMRSGMEVRTVTDYGTFIPVSDTQSFASYPGQQVSIINFGAKGLKAEGLFYPLSDFTNWWQGTLNEAIADEFTIHCTGEYLVFLAY	not failed
MINIVIVSHSKHLAEGIEALANQMLNPTHCRLAIAAGVDDEAHPIGTDAVKIMTAIESLAEADAIIVMMDLGSAILSTETAIELLDTELAQKVTLCSAPLVEGTLAAVVAASSGASLEKVLEEANHALTPKKMQLGENMGGSEPNDVTPSIQMHGKEAHWVVKNPHGLHVRPAATLVELLSKFRADYQLIKGDRRINPLSLNQLSLIQIRQGDEITLIASGEQENEAIDAFLALAKQGFGEALPDELTEQSLTGTLVPASPIKGPAFIWHELELAPIENLSAPLDSTIQIEQFNQAIKDTLNDLKHYAEKANHTLGEQIGAIFNGHIMMLDDEELLTNVIDRIKTDNVSAQQSWTNEMKERIQLYRTLSDPYLRARELDLRDLRNQVLYHLQQKTPPKFTPSQPSILVAKELFPSTLIQFDATQLLAITLAEGDSCSHSAIIATQMGLPMLVHLGDGLLKIKEAQELTLDLKSSELIIGSIN	failed
MINKDTQLCMSLSGRPSNFGTTFHNYLYDKLGLNFIYKAFTTQDIEHAIKGVRALGIRGCAVSMPFKETCMPFLDEIHPSAQAIESVNTIVNDNGFLRAYNTDYIAIVKLIEKYHLNKNAKVIVHGSGGMAKAVVAAFKNSGFEKLKIYARNVKTGQYLAALYGYAYINSLENQQADILVNVTSIGMKGGKEEMDLAFPKAFIDNASVAFDVVAMPVETPFIRYAQARGKQTISGAAVIVLQAVEQFELYTHQRPSDELIAEAAAFARTKF	not failed
MINMCYNFENVKKAYEDQLKNYIKNSLIPNLSSHANNEVVKISMKKLANLGFGYLVDSTLSSITGYYKVRDWIEELLKEELQKSGENKCCNIVLCDYPEEFEISMREIPYYVNKVVKFNGVIISASYPCVLSKKHLYICPKCGRIKEVYFSELFWDDKVFCEFCGGKMEFANVMDYENFQELVVQDLSDESEYYGIEKNPIVWYCGAKPYYFGHVKITGIVREVPRSSKSRIYELIVQAINVEKLGVEKSLINLTEEDVKNIKKVAKRGDIIDILADILIPPLLCDDAIVRKAILIQQIAPYLEDIGKINILLVTEVGIDKTAILKRIGNIPGNNFINIAALKEEELATPYDKRSNILGKFYTVCGGVIPRTLGVLCIDDFNENNKLSTKLSEAFERNVLTTNKGSFYCVPAECSFLCACYPKTKFRKFDQKKSIIKQIGISSILLKNFDLIFPIRDIPDKDRDEEVAKYIFLKYINSDNEEIEGYDYVFVDVGGEKIKIDFEFLKKYVVYSRQITPKITDEVIEKISNWYDEMRKNHYITAKQLNTVIKLSIAVARAKLKECVDEDDVKEAIDIIMHYLKQVVYNPKKGIIDVILLYKNKT	failed
MINYKKKIAALMLLATCLSGCSYDLKDLQHLKSKSSFDTVGIKILCEHKKYSEAMKQIDDYLKKHPDDKVALSEKGYVLVSQDKNEDGLLVLLKVNDKYPNYDVTLNNISWAYNNLKMYKLANKYADLALKQTPNSSEELSNKGTALFGLKNYKAAEKYYDKALEKKSTDKVAIWGKALSLYKEKSYSKSLTYFKKYVIVDSSDIQASYYMEKCYIALNDVDGAIKEFKSDIIADPKNKGNYFALGDMYRKKTDYSSALSCYDTLSEIDPEDPEIYFQKAICLVKSGDKDGACENLKLTLSYDSEYVSDIEEEPAFDALKDYDKFKEILNSK	failed
MIPIVDSRIGAYLDGLLPEADPVVAAMEQIARERNIPIVDRQTGRLLYLLARIKQPQLVVVPGDGLGCASWWFARAISISSRVVMIDPDRDNVEHARRMLHDNGLIDRVELQVGDPLGIAAGQRDIDILFMDCDVFNGADVLERMNRCLAKNALLIAVNALRRGSVAESHEDPETAALREFNHHLSRRRDFFTTIVPVGNGVLLGYRLS	not failed
MIPPYREHPLREVLINELHARPSETIEAPVRLSHLAVLTGEITDPSLDHLGLLCARMGETVPAKGATRFNANLGGLGLQFERHTEFCTYTFQRRGRTGDLPFDQPALDMVPPDWLATLPGQVLSAVHLVVEPKDTPEYSIEELSIRHFAGNPVVGSAVGGGAAFAYSDLRLHDDRCLRMLIRDVDLNPRHAGRLVQRLLELNTYRALALLALPMARESSPGLRRIDMVLAHVAARMADPNGVDSDAELLSELSNLTAEVESLAAANSYRIAATRAYHALVQRRLEELREVRLDGVVTFGAFMDRRLTPAMATVDSVSERIESLSERGARVASLLRARVEVDLQAQNKRLLESMNRRARIQLRLQEAVEGLSVVAISYYLVGLVGYMAKGVSGAGVEVKESVVTAIAVPVIVASVWLVLRRAKRAMLNRAD	failed
MIQKQHESKLEVGQTFPVTIKRLGINGEGVGYFKRQVVFIPGALPGEEVVAETTKIQRGFAEAKVKKVRKASPHRVKAPCPVYEECGGCQLQHLDYKEQLNQKRDIVVQAFEKYMKNSMEEKIRPTLGMENPWHYRNKSQLQVGRKDEKVITGLYKQNSHQLIDIAHCMIQHKATNEATKVVRRILEKLNVSIYNEKKQKGLVRTIVTRTAVQTGEVQVTLITTKEELPNKEQFIAEVQKQMPAVKSIMQNVNWRKTSVIFGDKTFKLAGKEVIQETLGDLSFELSARAFFQLNPEQTVVLYNEAKKAAALTGNEKIVDAYCGVGTIGLWLANDAAEVRGMDVIPEAIADARKNAKRHGFTNTKYEAGKAEQWLPKWVKEGWRPDVIVVDPPRTGCDDKLLETILKVKPKQVVYVSCNPSSLARDVQALMKSYEVEYVQPVDMFPHTAHVENVVKLTLK	failed
MIQQRANFDWMLKELADGVPGVHQIVVLSADGLRIARYGGDPDAADRVAAACAGLQSLAGAVATEIPHSDGKMRMVIIEMDGAYFYMMAAGPNAYLAVLSDVTAEAGLMSNRMRDLVVRIGAHLTSPPRRNGQTV	failed
MIRKLNKKDQEILKTLGSIWLNSNIATHNFINEEYWVNNYDNVIESFKTAEIIVYEKNTEIIGFCGLIDNYIAGMFIKKSSRNQ	failed
MIRLATKNDLLSITQLVKEAKQIMEEFNNNQWDDEYPAKEHFEEDIENKTLYVLDVDHTIYGFIVIDQNQSEWYDDIDWPVNRNGAYVIHRLAGSKQYKGAATELFQFAIDLANEHDIHVILTDTFALNKPAQGLFEKFGFTKVDEIEIDYHPFDRGAPFYAYYKNI	failed
MIRLGLTSFSEHDYLTGKKRSTLYEYASHLPLVEMDTAYYGIPPKERVAEWVKAVPENFRFVMKVYSGISCQGEWQTYYASEEEMITAFLESMAPLIESKKLFAFLVQFSGTFGCTKENVAYLQKIRHWFKDLPIAIELRNNSWYQPNFVKQMLQFMKENQFSLVIVDEPQIPTNPVPFYPYVTNPNLVLFRFHGRNAAGWLANDAEWRKKRTLYHYNTQEIADLSEAVLKMSQEAKEVGVIFNNNSGGDAAENALQMQKVLNLSYDDLNPKQLDLF	not failed
MIRLPRAGTVLAVRGTAARSRRRLSTMARMPDTNTTDLWERRTQGPLLALAVLFAVAYALPVVMPDAPEQLLFACHVANWVVWAAFAIDYAVRLWLSEDRLRFVRSHPLALLAVLLPLLRPLRLLKLVSMLLLAGQRARMASQVRVTTYVAGSCLGLLVFGALAVLEVERGRPGASIQTLGDALWWAFTTMTTVGYGDMAPTTGLGRLLAIGLMLSGIALLGVVTANIAAWFISRFERDDAEERRQTAAIEALTEEVRALRAQVATLRAPQGAPSELNVLPAPTREHD	failed
MIRLTIEETNLLSIYNEGGKRGLMENINAALPFMDEDMRELAKRTLAKIAPLTENEYAELAIFAADEVLEHHHHHH	not failed
MIRNASIINVFRVSLALIVIVASASSLSAFWLLEKSEQDAELINVAGSHRMKAYKFALQLSSGKKVQASETAQEIDTLWEQPLLHRHFVKAGGSIQQLAKDARTEWQRVHSEIAEQDFARFSQQQSNAIDNYVNQLDTLVGQLQEHSERRMETVRSSLALASFFIVAIFFFLLTVLKRKINQPLRHLLAVSKRLGQGDFTAKSKIDNEDEIGQLSRTMNKMSETVSYFYGGLERRVEQQTQELSRKNKVLSFLYDTARSIIVHSYDYNNYQQVIEKLYEIGEVNDIELCLLTEEGNRPFLQLQPRPSSHEPCEAGDCATCLKAGPGASVIEDKLVYRFVLKREDQNYGVLIVRCEQGQPLATWQQQLMSSTADQLALSQSLKSEEEQVRRLALMHERTVIARELHDSLAQALSYLKIQVTRLHKGIEKNDRATIDDVSNELREGLNSAYRQLRELLTTFRLKVDGSGLYSALQTTVKQLTEQSNMVVHLDYRLNNIPLVPHEEIHLLQIIREASQNAVNHSQGSEVHISLSQPSGQDVELKITDDGIGLPENAEKVNHYGLAIMQERSRNLGGEIKISRLESGGTEVCFTFTPDYLLQ	failed
MIRNLYNKIKNCKLKIAAIILLIFLIVTGYIYYSRYFYVLRSPQRVKEFILSYGKFGFFAFFVMQMLQVVAFFIPGEIIQIAGGYIFGTFWGTVISLLGITAGSAVAFYLSNKLGRPFVKKISGKQNISFFEKLIKNGEIKYVITLIYLVPGLPKDILAYVCGITDLSLKDFIIYSTIGRFPGIFISAYFGNTITHGNIKMMVIIAVISVVLFGLGVFKGKYLLTKISSIRSKKQK	failed
MIRNVLKLLALLADEIVIVALVIIFLRRVSARLAVIVGGALILFNLFLVKLLWGTLKKKAEVGAEALIGEKAVVVEDLNPVGLVKVKNELWTAECISGTARRGEKVRIVQVKGAKLLVEKDDNAGKFL	failed
MIRVTFLPDQVSVEATAGEAWLSVAARAGVEIPTGCRMGSCGACTLELEDGQEIRACISTIAGDRDPAPLEDCPHITAYVFRDPTW	failed
MISASWKSAGKTTVSLGLLRLLAENGVPVVSFKKGPDYIDPMWHRVASSGECYNLDTWMMGEAACRDTFIRNCARRPGSIALIEGNHGLHDGMDMAGADSSAGLAALLDAPVLLVIDSRRMNRGVAAQVLGLQAMPPKVRIAGVILNHVTSSRQESKQRAAIETFCNVPVLGAIPADSSLLLPERHLGLVTVGEASDAEAFIRVAAQQVERHCDFAAIRKLFEEASPLSHSEPREVFSPKKEATVKIGVFRDAAFCFYYPDNLDALRDAGAELVFIDTFKTTALPEIDGLYLGGGFPESFFAELSANTSLLRDMRGRIEAGIPAWAECGGLIYLCRSATWEGRQWPLASVLPIDIAYQRKPAGCGYLELESRAGSGWFPVGERVRAHEFHYSKPVAGNVDLACQFDVARGFGLTGREDGLLYRNLFASYAHFHAAANPGWAERFVGLALKFKEQGRLERD	failed
